This is an account of results in patent US20240150440A1 (LUMEN BIOSCIENCE, published 2024).

Like-named read-outs stand apart in the source and are kept apart here.

For orientation: IC50 means the concentration that inhibits the measured activity by half. Broadly, the Kd is the equilibrium constant for the complex coming apart. One may read the EC50 as the concentration that produces a half-maximal response. A lower EC50 goes with higher potency in that assay. What is called koff is a measure of how fast the partners let go of each other. The term kon denotes a measure of how fast the partners come together.

In experiment [1] the target is T1, recombinant SARS-CoV-2 RBD with C-terminal AviTag (SARS-CoV-2, UniProt P0DTC2 319-541). Put plainly: ELISA, competition with coated ACE2-Fc for RBD [Cont. 1]. On the technique in general: ELISA stands for enzyme-linked immunosorbent assay.
Experiment [2] addresses T1, recombinant SARS-CoV-2 RBD with ….
Experiment [3] deals with SARS-COV-2 Wuhan Reference RBD (SARS-CoV-2, UniProt P0DTC2 319-541). The experiment is described as follows: ELISA, RBD coated.
The target of experiment [4] is T1, recombinant SARS-CoV-2 RBD with …. The source holds these as a separate data set.
For experiment [5] the target is unchanged. This is another data set of the same source.
Experiment [6] has the same target. The experiment is described as follows: BLI, biotinylated RBD on streptavidin biosensors [Cont. 6]. (In general: In BLI a coated tip is dipped into the sample, and binding shifts an interference pattern.)
The target is the same in experiment [7]. The experiment is described as follows: ELISA, competition with coated ACE2-Fc for RBD [Cont. 6].

B1: PP1144 MBP-5HVZ-PAPA-R2c-F6-H6 (VHH)
VHH: QVQLVESGGGLVQPGGSLRLSCAASGRILAANIVHWYRQAPGKEREGVAGITTGGSNYYSDSVKGRFTISRDNAKNTVYLQMNSLKPEDTAVYYCNALGLGSASGSYESWGQGTQVTVSS
notes: Form: Dimer
As for B1, in experiment [1], the IC50 was 3.2 nM.

B2: PP1156 MPB-scTRP-PAPA-R2c-F6-H6 (VHH)
VHH: B1 VHH
notes: Form: Trimer
For B2, the IC50 in experiment [1] amounted to 165 nM.

B3: PP1132 MBP-4B0F-PAPA-R2c-F6-H6 (VHH)
VHH: B1 VHH
notes: Form: Heptamer
Take B3: in experiment [1], the IC50 turned out to be 158 nM.

B4: MBP-R5D-D4-H6 (VHH, not shown: large carriers; small tags and cut ends)
VHH: QVQLVESGGGLVQPGGSLRLSCAASGSDFTINAMHWFRQAPGKQREFVATITSTSSTAYRDSVKGRFTISRDNAKNTVYLQMNSLKPEDTAVYYCAAFAVRDADTAGWTARDYWGQGTQVTVSS
For B4, the Kd in experiment [2] is 100 nM.

B5: PP1145 MBP-5HVZ-PAPA-R2d-A6-H6 (VHH)
VHH: QVQLVESGGGLVQPGGSLRLSCAASGSGASIGAMHWFRQAPGKGREWVASITSAGNTYYGDSVKGRFTISRDNAKNTVYLQMNSLKPEDTAVYYCNALAGANYESQWEEYNYWGQGTQVTVSS
notes: Form: Dimer
B5 gave an EC50 in experiment [3] of 1.33 nM. Besides, the IC50 in experiment [1] worked out at 3.8 nM.

B6: PP1157 MPB-scTRP-PAPA-R2d-A6-H6 (VHH)
VHH: B5 VHH
notes: Form: Trimer
Consider B6, for which the IC50 in experiment [1] was 4.7 nM.

B7: PP1133 MBP-4B0F-PAPA-R2d-A6-H6 (VHH)
VHH: B5 VHH
notes: Form: Heptamer
As to B7, in experiment [1], the IC50 was 11 nM.

B8: PP1895 S3B-C8_smAKAP-C16S_S3B-C8_H6 (VHH)
chain: QVQLVESGGGLVQPGGSLRLSCAASGSIENIERMHWYRQAPGKQRELVAVIDSGGTTRYADSVKGRFTISRDNAKNTVYLQMNSLKPEDTAVYYCAAVWLTNAESTQEYWGQGTQVTVSSTVILEYAHRLSQDILSDALQQWASQVQLVESGGGLVQPGGSLRLSCAASGSIENIERMHWYRQAPGKQRELVAVIDSGGTTRYADSVKGRFTISRDNAKNTVYLQMNSLKPEDTAVYYCAAVWLTNAESTQEYWGQGTQVTVSSHHHHHH
Take B8: in experiment [4], the Kd amounted to 2.06 nM, the koff amounted to 0.00761 s⁻¹ and the kon is 3.69e+06 M⁻¹ s⁻¹.

B9: MBP-5HVZ-R5D-B2-H6 (VHH, not shown: large carriers; small tags and cut ends)
VHH: QVQLVESGGGLVQPGGSLRLSCAASGSIWSIAFMSWYRQAPGKGREWVAAITTGNDEAYADSVKGRFTISRDNAKNTVYLQMNSLKPEDTAVYYCAANTYERTPDGRTFSYWGQGTQVTVSS
B9: in experiment [5], the equilibrium dissociation constant (Kd) came out at 1.21 nM.

B10: PP906 MBP-5HVZ-S1b-E7-H6 (VHH)
VHH: QVQLVESGGGLVQPGGSLRLSCAASGGEFSDNGLHWFRQAPGKQREFVATASSDGSTQYRDSVKGRFTISRDNAKNTVYLQMNSLKPEDTAVYYCTALLMSSAGEYDVWGQGTQVTVSS
notes: Form: Dimer
With B10, the Kd in experiment [6] amounted to 15.5 nM. The same molecule gave an EC50 in experiment [3] of 2 nM. Further, the IC50 in experiment [7] was 35.7 nM.

B11: PP1892 R2B-D5_smAKAP-C16S_S3B-C8_H6 (VHH)
chain: QVQLVESGGGLVQPGGSLRLSCAASGYADEINMVHWYRQAPGKGREFVAAIASGGSTFYADSVKGRFTISRDNAKNTVYLQMNSLKPEDTAVYYCAAIPRPSLSYAHDYAYWGQGTQVTVSSTVILEYAHRLSQDILSDALQQWASQVQLVESGGGLVQPGGSLRLSCAASGSIENIERMHWYRQAPGKQRELVAVIDSGGTTRYADSVKGRFTISRDNAKNTVYLQMNSLKPEDTAVYYCAAVWLTNAESTQEYWGQGTQVTVSSHHHHHH
With B11, in experiment [4], the Kd came to 0.33 nM, the koff is 0.000411 s⁻¹ and the kon turned out to be 1.23e+06 M⁻¹ s⁻¹.

B12: MBP-5HVZ-R5D-G1-H6 (VHH, not shown: large carriers; small tags and cut ends)
VHH: QVQLVESGGGLVQPGGSLRLSCAASGSIFGINDVHWFRQAPGKEREFVATITNGLSARYKDSVKGRFTISRDNAKNTVYLQMNSLKPEDTAVYYCAAQVYITTYELYDYWGQGTQVTVSS
Turning to B12, the IC50 in experiment [2] amounted to 12.4 nM.

B13: MBP-5HVZ-R5C-F3-H6 (VHH, not shown: large carriers; small tags and cut ends)
VHH: QVQLVESGGGLVQPGGSLRLSCAASGTIPSINYTAWYRQAPGKQRELVASLTSGDNRYYTDSVKGRFTISRDNAKNTVYLQMNSLKPEDTAVYYCNAKTVGSSYRDSYNYWGQGTQVTVSS
As for B13, in experiment [5], the IC50 was found to be 11.9 nM and the Kd was found to be 11.3 nM.

B14: PP1894 S3B-C8_smAKAP-C16S_R2B-D5_H6 (VHH)
chain: QVQLVESGGGLVQPGGSLRLSCAASGSIENIERMHWYRQAPGKQRELVAVIDSGGTTRYADSVKGRFTISRDNAKNTVYLQMNSLKPEDTAVYYCAAVWLTNAESTQEYWGQGTQVTVSSTVILEYAHRLSQDILSDALQQWASQVQLVESGGGLVQPGGSLRLSCAASGYADEINMVHWYRQAPGKGREFVAAIASGGSTFYADSVKGRFTISRDNAKNTVYLQMNSLKPEDTAVYYCAAIPRPSLSYAHDYAYWGQGTQVTVSSHHHHHH
As for B14, in experiment [4], the Kd is 0.44 nM, the koff was determined as 0.000599 s⁻¹ and the kon is 1.34e+06 M⁻¹ s⁻¹.

B15: MBP-5HVZ-R5C-F6-H6 (VHH, not shown: large carriers; small tags and cut ends)
VHH: QVQLVESGGGLVQPGGSLRLSCAASGQTNSILAMHWYRQAPGKQREAVATITSGSNSTYADSVKGRFTISRDNAKNTVYLQMNSLKPEDTAVYYCAARNGKLSPKANQRLYWGQGTQVTVSS
For the molecule B15, the IC50 in experiment [5] turned out to be 110 nM.

B16: PP1146 MBP-5HVZ-PAPA-R2d-D3-H6 (VHH)
VHH: QVQLVESGGGLVQPGGSLRLSCAASGHIFSINNAAWVRQAPGKSREGVATIHSGGGTYYSDSVKGRFTISRDNAKNTVYLQMNSLKPEDTAVYYCNAEVSTGAGSRGRVSDVYWGQGTQVTVSS
notes: Form: Dimer
Turning to B16, the IC50 in experiment [1] is 2.1 nM.

B17: PP1181 R2d-D3-PP7-H6 (VHH)
VHH: B16 VHH
B17: the IC50 in experiment [1] came to 282 nM.

B18: PP1158 MPB-scTRP-PAPA-R2d-D3-H6 (VHH)
VHH: B16 VHH
notes: Form: Trimer
Regarding B18, the IC50 in experiment [1] came to 43.4 nM.

B19: PP1134 MBP-4B0F-PAPA-R2d-D3-H6 (VHH)
VHH: B16 VHH
notes: Form: Heptamer
Take B19: in experiment [1], the IC50 was determined as 27.7 nM.

B20: MBP-5HVZ-R5C-F5-H6 (VHH, not shown: large carriers; small tags and cut ends)
VHH: QVQLVESGGGLVQPGGSLRLSCAASGSYFKINSLAWFRQAPGKAREVVAAIHSGDGTNYADSVKGRFTISRDNAKNTVYLQMNSLKPEDTAVYYCAADQAWVRAGTYDYWGQGTQVTVSS
As for B20, in experiment [5], the IC50 was found to be 3.9 nM and the Kd was found to be 3.13 nM.

B21: MBP-5HVZ-R5D-E4-H6 (VHH, not shown: large carriers; small tags and cut ends)
VHH: QVQLVESGGGLVQPGGSLRLSCAASGQISSNNGMHWFRQAPGKRREFVATATTGGTTSYADSVKGRFTISRDNAKNTVYLQMNSLKPEDTAVYYCTALLMSRAGEFDYWGQGTQVTVSS
For B21, in experiment [2], the IC50 came to 13.7 nM and the Kd worked out at 9.34 nM.

B22: MBP-5HVZ-R5D-A1-H6 (VHH, not shown: large carriers; small tags and cut ends)
VHH: QVQLVESGGGLVQPGGSLRLSCAASGSISSYNAMHWFRQAPGKQREWVAGLTSSGSDGYVDSVKGRFTISRDNAKNTVYLQMNSLKPEDTAVYYCNAFSYHTYSRYDFWGQGTQVTVSS
As to B22, the half-maximal inhibitory concentration (IC50) in experiment [5] was found to be 12.6 nM.

B23: MBP-5HVZ-R5C-G6-H6 (VHH, not shown: large carriers; small tags and cut ends)
VHH: QVQLVESGGGLVQPGGSLRLSCAASGSIESINAIHWFRQAPGKAREEVAAITENDVDYYADSVKGRFTISRDNAKNTVYLQMNSLKPEDTAVYYCASLSSGYQYVGFRYWGQGTQVTVSS
As for B23, the IC50 in experiment [5] is 8.7 nM.
